# Test results: the nanobody polyreactivity screen of Harvey et al. (2022)
# Test: yeast display, Sf9 membrane polyspecificity reagent, FACS + sequencing; frameworks hold sequencing errors
# In short: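 Genes from sorted yeast were amplified by colony PCR, read by MiSeq 2 × 250 sequencing and filtered on CDR length. These cells carried a synthetic nanobody library in Saccharomyces cerevisiae BJ5465 and were sorted by FACS into low and high (top ~1%) gates on anti-HA and streptavidin fluorescence. Polyreactivity is labelled according to the gate of origin.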
row,Sequence,polyreactivity (PSR sort gate)
1,QVQHVESGGGLVQAGVSLRLSCAASGSIFVNNGMGWYRQAPGKERELVAAIRLSTGSTYYADSVKGRFTISRDNAKNTVYLQMNSLKPEDTAVYYCATRSYIWGNWGQGTQVTVSS,high polyreactivity
2,QVHLVESGGGLVQAGGSLRLSCAASGSIFGGYGMGWYRQAPGKEREMVAAITSGSSTYYADSVKGPFTISRDNAKNSVYFQLNSLKPEDTAVYYCAARPYPHSAYEGDYWGRGTQVTVSS,low polyreactivity
3,QVQLVESGGGLVQAGGSLRLSCAASGRIFVGNTMGWYRQAPGKERELVAAITYRGGSTYYADSVKGRFTISRDNAKNTVYLQMNSLKPEDTAVYYCATAGYWGGDYWGQGTQVNVSS,low polyreactivity
4,QVQLVESGGGLVQAGGSLRLSCAASGRTFFRYAMGWYRPAPGKERELVAAITRSGGSTYYADSVKGRFTISRDNAKNTVYLLMNSLKPEDTAVYYCAAPREAYSRGYDSWGQGTQVTVSS,high polyreactivity
5,QVQLVESGGGLVQAGGSLRLSCAASGSTFKFNAMGWYRQAPGKERELVAAISRGGRTNYADSVKGRFTISRDNAKNTVYLQMNSLKPEDTAVYYCAKDVAGLFHVGALYYYWGQGTQVTVSS,low polyreactivity
6,QVQLVESGGGLVQAGGSLRLSCAASGSIFLRYAMGSYRQAPGKDRELVAAITRSGGSTYYADSVKGRFTISRDNANNTVDLQMNSLKPEDTAVYYCAAYTLVTVGYDYWGQGTQVTVSS,high polyreactivity
7,QVQLVESVGGLVQAGGSLRLRCAASGSTFYKNAMGRYRQAPGIERELVAGISRRGGRTYYADSVKGRFTISRDNAKNTVYLQMNSLKPEDTAVFYCNTGHEVDEYDYWGQGTQVTVSS,low polyreactivity
8,QVQLVESGGGLVQEGGSLHLICAASGRIFGKYPMGWYRQAPGKEREFVAAIRSSDGNTYYADSVKGRFTISRDNAKNTVYLQMNSLKPDDTAVYYCNAGRVTRRDTFDYWGQGTQVTVSS,high polyreactivity
9,QFQLVESGGGLVQAGGSLRLSCAASGSIFRGYTMGWYRQAPGKERELVAAISWSGGSTYYADSVKGRFTISRDNAKNTVYLQMNSLKPEDTAVYFCAAGDYYHRIFLWYDYWGQGTQVTVSS,low polyreactivity
10,QVQLVESGGGLVQAGGSLRLSCAASGFIFYKNAMGWYRQAPGKERELVAAISRRGSSTYYADSVKGRFTISRDNAKNTVYLQMNSLKPEDTAVYYCAADSHIDHGKWAYDYWGQGTQVTVSS,high polyreactivity
11,QVQLVESGGGLVQAGGSLRLSCAASGSTFYLNPMGWYRQAPGKERELVAVITSSGGSTNYADSVKGRFTISRDNAKITVYLQMNSLKPEDSAVYYCNRRPYPSYDYWGHGTQVTVSS,low polyreactivity
12,QVQLVESGGGLVQAGGSLRLSCAASGSTFRPYAMGWYRQAPGKERELLAAISSGDTTDYADSVKGRFTISRDNAKNTVYLQMNSLKPEDNAVYYCATVFNDLTVYEYWSRFDYWGPGTQVTVSS,low polyreactivity
13,QVQLVESGGGLVQAGGSLRLSCAASGRIFLVYGMGWSRQAPGKERELVASITDRGGSTYYADSVKGRFTISRDNAKNTVYLQMYSLKPEDTAVYYCAADGAFYASTEMDYWGQGTQVTVSS,low polyreactivity
14,QVQLVESGGGLVQAGGSLRLSCAATGSNFINYAMGWYRQAPGKERELVAAYADSVKGRFTISRDNAKNTVYLQMNSLKPEDTAVYYCNAVTGEWGQGTQVTVSS,low polyreactivity
15,QVQLVESGRGLVQAGGSLRISCASSGNTFVYNPMGWYRQAPGKERELVAAIDSGGSTNYADSVKGRFTISRDNAKNTVYLQMNSLKPEDTAVYYCNRTSVYDYYWGQGTQGTVSS,low polyreactivity
16,QVQLVESGGGLVQAGGSLRLSCAASGRIFDDYAMGWYRQAPGKERELVAAISWSGGSTYYADSVKGRFTISRDNAKNTVYLQMNSLKPEDTAVYYCAAPYHSYKRIGYDYWGQGTQVTVSS,low polyreactivity
17,QVQLVESGGGLVQAGGSLRLSSAASGRIFRPYAMGWYRPAPGKERELVAIRKSTGSTYYADSVKGRFTISRDNAKITVYLQMNSLKPEHTAVYYCAAPRDWDAGDYWGQGTQVTVSS,high polyreactivity
18,QVQLVESGGGLVQAGGSLRLSCAASGSIFNGNAMGWYRQAPGKERELVAAISSGDSTNYADSVKGRFTISRDNAKNTVYLQMNSLKPEDTAVYYCNAVHRSIARGGGMDYWGQGTQVTVSS,low polyreactivity
19,QVQLVESGGGLVQAGGSLRLSCAASGNTFSSNAMGWYRQAPGKERELVAGITKSGGRTYYADSVKGRFTISRDNAKNTVYLQMNSLKPEDTAVYYCNRRAGPYSIPYYYWGQGTQVTVSS,high polyreactivity
20,QVQLVESGGGIVQAGGSLSLSCAASGRSFRYYAMGWYRQAPGKEREMVAAIDTSSGSTYYADSVKGRFTISRDNAMNTVFLQMNSLKPEDTAVYYCNATWWIPLIYDYWGQGTHVTVSS,low polyreactivity
21,QVQLEDSGGGLVQAGGSLRLSCAASGGTFRYNSMGWYRPAPGKERELVAGITWGGGSTYYADSVKGRFTISRDYAKNSVYLQMNSLKPEDTAVYYCNAVRPRQWWTHYGYWGQGTQVTVSS,high polyreactivity
22,QVQLVESGGGLVQAGGSLRLSCAASGLTFGTNAMGWYRQAPGKERELVAAISTSSGSTYYADSVKGRFTISRDNAKKTVYLQMNSLKQEDTAVYYCAAVTVTKLSYYRYYYWGQGTQVTVSS,low polyreactivity

row,Sequence,polyreactivity (PSR sort gate)
1,QVQLLETGRGLVQAGGSLRLSCAPSGITFRYYAMGWYRQAPGQERELVAAITRSGGSTYYADSVKGRFTLSRYNAKNTVYLQMNSLKPEDTAVYYCAAQPVSRHTGTFYRSNGYDYWGQVTQVTVSS,high polyreactivity
2,QVQLVESGGGLVQAGGSLRLSCAASGSIFGYYGMGWYRQAPGKERELVATITSGGSTNYADSVKGRFTISRDNAKNTVYLQMNSLKPEDTAVYYCARQYGYQPERYGYWGQGTQVTVSS,low polyreactivity
3,QVQLVESGGGLVQAGGSLRLSCAASGSIFNDNVMGWYRPAPGKERELVAGISRSGTRTYYADSVKGRFTISRDNAKNTVYLQMNSLKPEDNAVYYCAAAYGQARRYNGSQYGSWGQGTQVTVSS,high polyreactivity
4,QVQLVESGGGLVQAAGSLRLSCAASGRIFYSYAMGWYRQAPGKERELVAASSFSVGSTYYADSVKGRFTISRDNAKNTVYLQMNSLKPEDTAVYYCAASLGFPGYEYWGQGTQVTVSS,low polyreactivity
5,QVQLVESGGGLVQAGGSLRLICAASGRIFNYNYMGLYRQAPGKERELLAAISWRGGSTYYADSVKGRFTISRDNAKNTVYLQMKSLKPEDTAVYYCNKRTRYSTGSRYDYWGQGTQVTVSS,high polyreactivity
6,QVQLVESGGGLDQAGGSLRLSCAASGNIVYNGMGWYRQAPGKERELVAAIRGSGGRTYADSVKGRFTISRDNAKNTVYLQMNSLKPEDTAVYYCATRRWYAYGVYYWGQGTQVTVSS,high polyreactivity
7,QVQLVESGGALGQAGGSLRLTSAASGITFPRYAIGWYRHAPGKEREMVATITRSGGGTYYADSVKGRFKISRDNAKNTVYLQMNSLKPEDTSVFYCAAGALQRGVYGYGFWGQGTQVTVSS,high polyreactivity
8,QVQLVESGGGLVQAGGSLRLSCAASGSIFPDNAMGWYRQAPGKERELVAAITRGGSTYYADSVKGRFTISRDNAKNTVYLQMNSLKPEDTAVYYCAARRRYLWSYDYWGQGTQVTVSS,high polyreactivity
9,QVQLVDSGGGLVQAGGSLRLSCAASGSTFPIYAMEWYRQAPGKERELVAAISSGGSTYYADSVKGRFTISRDNAKNTVYLQMNSLKPEDTAVYYCAADYSQPNFEYYYWGQGTQVTVSS,low polyreactivity
10,QVHLVESGGGLVQAGRSLPLSCAASGRIFIYNAMGWYRQAPGKERELVAAINRSGVSTHYADSVKGRFTISRDNAKNTVYLQMNSLKPEDTAVYYCARTVYGARSYDYWGQGTQVTVSS,low polyreactivity
11,QVQLVESGGGLVQAGGSLRLSCAASGLTFSRYAMGWYRQATGKERELVAAITSNGGSTYYADSVKGRFTISRDNAKNTVYLQMNSLKPDDTAVYYCATGYPIDLGREFDYWGQGIQVTVSS,high polyreactivity
12,QVQLVESGGGLVQSGGSLRLSCAASGSTFNYYAMGWYRQAPGKERELVAVINKSGGRTNYADSVKGRFTISRDNAKNTVYLQMNSLKPEDTAVYYCNKVTRREGSYGYPSRYEYWGQGTQVTVSS,high polyreactivity
13,QVQLVESGGGLVQAGGSLRLICAASGSIFTIYAMGWYRQAPGKERELVAAISYSDTSTYYADSVKGRFTISRDNAKNTVYLQMNSLKPEDTAVYYCAAEDLWYIAYWDDMDYWGQGTQVTVSS,low polyreactivity
14,QVQLVESGGGLVQAGGSLRLTCAASGRTFRRNAMGWYRPAPAKERELVAAITSGGGTYYADSVKGRFTISRDNAKNTVYLQMNSLKPEDTAVYYCNKKTSAGRVDYWGQGTQVTVSS,high polyreactivity
15,QVQLVESGGGLVQAGGSLRLSCADSGRIFNGYGMGWYRQAPGKERELVATISSSGDSTYYADSVKGRFTISRDNAKNTVYLQMNSLKPEDTAVYYCAKRARYKFGYWGQGTQVTVSS,high polyreactivity
16,QVQLVESGGGLVQAGGSLRLSCAASGGIISTNAMGWYRQAPGKERDLVAAISRRGGSTYYADSVKGRFTISRDYAKNSVYLQMNCLKPEDTAVYYCNKYLRLFSYGRGYDYWGQGTQVTVSS,high polyreactivity
17,QVQLVESGGGLVQAGGSLRLSCAASGSTFYYNAMGWYRQAPGKEREFVAANSSRGGSTYYADSVKGRFTISRDNAKNTVYLQMNSLKPEDTAVYYCAADYYVWTPIGVRQYDYWGHGTQVTVSS,high polyreactivity
18,QAQLKESGGSLVQAGGGLRLSCAASGYNSVGSVMGWYRQAPSKERELVASIDQGANTNYADSVKGRFTISRDNAKNNVYLQMNSLKPEDTAVYYCATETTYFLNYWGQGTQVTVSS,low polyreactivity
19,QVQLVESGGGLVQAGGSLRLSCAASGFTFWVYAMGWYRQAPGKEREFVASISWTGDTTYYADSVKGRFTISRDNAKNTVYLQMNSLKPEDTAVYYCAGDTILGYDYWGQGTQVTVSS,low polyreactivity
20,QVHLVESGGCLVQAGGSLRLSCAASGSTFSRYAMVWYRQAPGKEREYVAGISWSGGNTYYADSVKGRFTISRDNAKNTVYLQMNSLKTEATAVYYCASDFLDYWGVYGWAEYEYWGQGTQGTVSS,low polyreactivity
21,QVQLVESGGGLVQAGGSLRLSCAASGFIFGTYVMGWYRQAPGKERELVAAISESGGRTYYADSVKGRFTISRDNAKNTVYLQMNSLKPEDTAVYYCAKVRHIRFHYYYGYQSYYYWGQGTQVTVSS,high polyreactivity
